Assay results from patent publication US20110166062A1 (INDIANA UNIVERSITY RESEARCH AND TECHNOLOGY, published 2011).
Bridges are numbered along the chain shown (N, C = ends). Where no end group is shown, it is not given here. [ ]: non-standard residue; d: D form. Aib = CC(C)(N)C(=O)O

T1: GIP receptor (UniProt P48546 22-466)
T1 sequence (looked up): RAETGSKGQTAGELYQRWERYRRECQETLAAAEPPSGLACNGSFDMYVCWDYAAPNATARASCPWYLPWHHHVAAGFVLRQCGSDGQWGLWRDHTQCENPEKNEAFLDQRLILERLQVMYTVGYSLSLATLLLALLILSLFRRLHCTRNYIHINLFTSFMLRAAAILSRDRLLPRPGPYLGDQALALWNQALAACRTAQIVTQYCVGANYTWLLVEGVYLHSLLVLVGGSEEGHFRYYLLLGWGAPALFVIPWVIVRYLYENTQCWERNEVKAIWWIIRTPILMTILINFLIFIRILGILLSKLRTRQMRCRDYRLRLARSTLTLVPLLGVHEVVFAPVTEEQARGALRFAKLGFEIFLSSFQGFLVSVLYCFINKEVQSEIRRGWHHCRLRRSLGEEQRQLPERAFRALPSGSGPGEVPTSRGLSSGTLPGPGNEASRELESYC

T2: GIP receptor (UniProt P48546 22-466)
T2 sequence (looked up): T1 sequence (looked up)

B1: mt-280 (peptide)
peptide: Y[Aib]QGTFTSDYSIYLDKQAA[Aib]EFVNWLLAGGPSSGAPPPSK-NH2
modifications: N-terminus assumed
SMILES: CC[C@H](C)[C@H](NC(=O)[C@H](CO)NC(=O)[C@H](Cc1ccc(O)cc1)NC(=O)[C@H](CC(=O)O)NC(=O)[C@H](CO)NC(=O)[C@@H](NC(=O)[C@H](Cc1ccccc1)NC(=O)[C@@H](NC(=O)CNC(=O)[C@H](CCC(N)=O)NC(=O)C(C)(C)NC(=O)[C@@H](N)Cc1ccc(O)cc1)[C@@H](C)O)[C@@H](C)O)C(=O)N[C@@H](Cc1ccc(O)cc1)C(=O)N[C@@H](CC(C)C)C(=O)N[C@@H](CC(=O)O)C(=O)N[C@@H](CCCCN)C(=O)N[C@@H](CCC(N)=O)C(=O)N[C@@H](C)C(=O)N[C@@H](C)C(=O)NC(C)(C)C(=O)N[C@@H](CCC(=O)O)C(=O)N[C@@H](Cc1ccccc1)C(=O)N[C@H](C(=O)N[C@@H](CC(N)=O)C(=O)N[C@@H](Cc1c[nH]c2ccccc12)C(=O)N[C@@H](CC(C)C)C(=O)N[C@@H](CC(C)C)C(=O)N[C@@H](C)C(=O)NCC(=O)NCC(=O)N1CCC[C@H]1C(=O)N[C@@H](CO)C(=O)N[C@@H](CO)C(=O)NCC(=O)N[C@@H](C)C(=O)N1CCC[C@H]1C(=O)N1CCC[C@H]1C(=O)N1CCC[C@H]1C(=O)N[C@@H](CO)C(=O)N[C@@H](CCCCN)C(N)=O)C(C)C
B2: mt-165 (peptide)
peptide: Y[Aib]QGTFTSDYSIYLDEQAAKEFVNWLLAGGPSSGAPPPSC-NH2
modifications: lactam 16-20; N-terminus assumed
SMILES: CC[C@H](C)[C@H](NC(=O)[C@H](CO)NC(=O)[C@H](Cc1ccc(O)cc1)NC(=O)[C@H](CC(=O)O)NC(=O)[C@H](CO)NC(=O)[C@@H](NC(=O)[C@H](Cc1ccccc1)NC(=O)[C@@H](NC(=O)CNC(=O)[C@H](CCC(N)=O)NC(=O)C(C)(C)NC(=O)[C@@H](N)Cc1ccc(O)cc1)[C@@H](C)O)[C@@H](C)O)C(=O)N[C@@H](Cc1ccc(O)cc1)C(=O)N[C@@H](CC(C)C)C(=O)N[C@@H](CC(=O)O)C(=O)N[C@H]1CCC(=O)NCCCC[C@@H](C(=O)N[C@@H](CCC(=O)O)C(=O)N[C@@H](Cc2ccccc2)C(=O)N[C@H](C(=O)N[C@@H](CC(N)=O)C(=O)N[C@@H](Cc2c[nH]c3ccccc23)C(=O)N[C@@H](CC(C)C)C(=O)N[C@@H](CC(C)C)C(=O)N[C@@H](C)C(=O)NCC(=O)NCC(=O)N2CCC[C@H]2C(=O)N[C@@H](CO)C(=O)N[C@@H](CO)C(=O)NCC(=O)N[C@@H](C)C(=O)N2CCC[C@H]2C(=O)N2CCC[C@H]2C(=O)N2CCC[C@H]2C(=O)N[C@@H](CO)C(=O)N[C@@H](CS)C(N)=O)C(C)C)NC(=O)[C@H](C)NC(=O)[C@H](C)NC(=O)[C@H](CCC(N)=O)NC1=O
B3: mt-167 (peptide)
peptide: YSQGTFTSDYSIYLDEEAAKEFVNWLLAGGPSSGAPPPS-NH2
modifications: lactam 17-20; N-terminus assumed
SMILES: CC[C@H](C)[C@H](NC(=O)[C@H](CO)NC(=O)[C@H](Cc1ccc(O)cc1)NC(=O)[C@H](CC(=O)O)NC(=O)[C@H](CO)NC(=O)[C@@H](NC(=O)[C@H](Cc1ccccc1)NC(=O)[C@@H](NC(=O)CNC(=O)[C@H](CCC(N)=O)NC(=O)[C@H](CO)NC(=O)[C@@H](N)Cc1ccc(O)cc1)[C@@H](C)O)[C@@H](C)O)C(=O)N[C@@H](Cc1ccc(O)cc1)C(=O)N[C@@H](CC(C)C)C(=O)N[C@@H](CC(=O)O)C(=O)N[C@@H](CCC(=O)O)C(=O)N[C@H]1CCC(=O)NCCCC[C@@H](C(=O)N[C@@H](CCC(=O)O)C(=O)N[C@@H](Cc2ccccc2)C(=O)N[C@H](C(=O)N[C@@H](CC(N)=O)C(=O)N[C@@H](Cc2c[nH]c3ccccc23)C(=O)N[C@@H](CC(C)C)C(=O)N[C@@H](CC(C)C)C(=O)N[C@@H](C)C(=O)NCC(=O)NCC(=O)N2CCC[C@H]2C(=O)N[C@@H](CO)C(=O)N[C@@H](CO)C(=O)NCC(=O)N[C@@H](C)C(=O)N2CCC[C@H]2C(=O)N2CCC[C@H]2C(=O)N2CCC[C@H]2C(=O)N[C@@H](CO)C(N)=O)C(C)C)NC(=O)[C@H](C)NC(=O)[C@H](C)NC1=O
B4: mt-168 (peptide)
peptide: YSQGTFTSDYSIYLDEQKAKEFVNWLLAGGPSSGAPPPS-NH2
modifications: lactam 18-21; N-terminus assumed
SMILES: CC[C@H](C)[C@H](NC(=O)[C@H](CO)NC(=O)[C@H](Cc1ccc(O)cc1)NC(=O)[C@H](CC(=O)O)NC(=O)[C@H](CO)NC(=O)[C@@H](NC(=O)[C@H](Cc1ccccc1)NC(=O)[C@@H](NC(=O)CNC(=O)[C@H](CCC(N)=O)NC(=O)[C@H](CO)NC(=O)[C@@H](N)Cc1ccc(O)cc1)[C@@H](C)O)[C@@H](C)O)C(=O)N[C@@H](Cc1ccc(O)cc1)C(=O)N[C@@H](CC(C)C)C(=O)N[C@@H](CC(=O)O)C(=O)N[C@@H](CCC(=O)O)C(=O)N[C@@H](CCC(N)=O)C(=O)N[C@H]1CCCCNC(=O)CC[C@@H](C(=O)N[C@@H](Cc2ccccc2)C(=O)N[C@H](C(=O)N[C@@H](CC(N)=O)C(=O)N[C@@H](Cc2c[nH]c3ccccc23)C(=O)N[C@@H](CC(C)C)C(=O)N[C@@H](CC(C)C)C(=O)N[C@@H](C)C(=O)NCC(=O)NCC(=O)N2CCC[C@H]2C(=O)N[C@@H](CO)C(=O)N[C@@H](CO)C(=O)NCC(=O)N[C@@H](C)C(=O)N2CCC[C@H]2C(=O)N2CCC[C@H]2C(=O)N2CCC[C@H]2C(=O)N[C@@H](CO)C(N)=O)C(C)C)NC(=O)[C@H](CCCCN)NC(=O)[C@H](C)NC1=O
B5: mt-166 (peptide)
peptide: Y[dA]QGTFTSDYSIYLDEQAAKEFVNWLLAGGPSSGAPPPSC-NH2
modifications: lactam 16-20; N-terminus assumed
SMILES: CC[C@H](C)[C@H](NC(=O)[C@H](CO)NC(=O)[C@H](Cc1ccc(O)cc1)NC(=O)[C@H](CC(=O)O)NC(=O)[C@H](CO)NC(=O)[C@@H](NC(=O)[C@H](Cc1ccccc1)NC(=O)[C@@H](NC(=O)CNC(=O)[C@H](CCC(N)=O)NC(=O)[C@@H](C)NC(=O)[C@@H](N)Cc1ccc(O)cc1)[C@@H](C)O)[C@@H](C)O)C(=O)N[C@@H](Cc1ccc(O)cc1)C(=O)N[C@@H](CC(C)C)C(=O)N[C@@H](CC(=O)O)C(=O)N[C@H]1CCC(=O)NCCCC[C@@H](C(=O)N[C@@H](CCC(=O)O)C(=O)N[C@@H](Cc2ccccc2)C(=O)N[C@H](C(=O)N[C@@H](CC(N)=O)C(=O)N[C@@H](Cc2c[nH]c3ccccc23)C(=O)N[C@@H](CC(C)C)C(=O)N[C@@H](CC(C)C)C(=O)N[C@@H](C)C(=O)NCC(=O)NCC(=O)N2CCC[C@H]2C(=O)N[C@@H](CO)C(=O)N[C@@H](CO)C(=O)NCC(=O)N[C@@H](C)C(=O)N2CCC[C@H]2C(=O)N2CCC[C@H]2C(=O)N2CCC[C@H]2C(=O)N[C@@H](CO)C(=O)N[C@@H](CS)C(N)=O)C(C)C)NC(=O)[C@H](C)NC(=O)[C@H](C)NC(=O)[C@H](CCC(N)=O)NC1=O
B6: mt-169 (peptide)
peptide: Y[Aib]QGTFTSDYSIYLDEQAAKEFVCWLLAG-NH2
modifications: lactam 16-20; N-terminus assumed
SMILES: CC[C@H](C)[C@H](NC(=O)[C@H](CO)NC(=O)[C@H](Cc1ccc(O)cc1)NC(=O)[C@H](CC(=O)O)NC(=O)[C@H](CO)NC(=O)[C@@H](NC(=O)[C@H](Cc1ccccc1)NC(=O)[C@@H](NC(=O)CNC(=O)[C@H](CCC(N)=O)NC(=O)C(C)(C)NC(=O)[C@@H](N)Cc1ccc(O)cc1)[C@@H](C)O)[C@@H](C)O)C(=O)N[C@@H](Cc1ccc(O)cc1)C(=O)N[C@@H](CC(C)C)C(=O)N[C@@H](CC(=O)O)C(=O)N[C@H]1CCC(=O)NCCCC[C@@H](C(=O)N[C@@H](CCC(=O)O)C(=O)N[C@@H](Cc2ccccc2)C(=O)N[C@H](C(=O)N[C@@H](CS)C(=O)N[C@@H](Cc2c[nH]c3ccccc23)C(=O)N[C@@H](CC(C)C)C(=O)N[C@@H](CC(C)C)C(=O)N[C@@H](C)C(=O)NCC(N)=O)C(C)C)NC(=O)[C@H](C)NC(=O)[C@H](C)NC(=O)[C@H](CCC(N)=O)NC1=O

biological target: T1, GIP receptor; experiment: cell-based or functional assay

With B1 the “EC50” value was 14.9 pM.

biological target: glucagon receptor (UniProt P47871 26-477, limits assumed); experiment: cell-based or functional assay
Sequence (P47871 26-477 limits assumed): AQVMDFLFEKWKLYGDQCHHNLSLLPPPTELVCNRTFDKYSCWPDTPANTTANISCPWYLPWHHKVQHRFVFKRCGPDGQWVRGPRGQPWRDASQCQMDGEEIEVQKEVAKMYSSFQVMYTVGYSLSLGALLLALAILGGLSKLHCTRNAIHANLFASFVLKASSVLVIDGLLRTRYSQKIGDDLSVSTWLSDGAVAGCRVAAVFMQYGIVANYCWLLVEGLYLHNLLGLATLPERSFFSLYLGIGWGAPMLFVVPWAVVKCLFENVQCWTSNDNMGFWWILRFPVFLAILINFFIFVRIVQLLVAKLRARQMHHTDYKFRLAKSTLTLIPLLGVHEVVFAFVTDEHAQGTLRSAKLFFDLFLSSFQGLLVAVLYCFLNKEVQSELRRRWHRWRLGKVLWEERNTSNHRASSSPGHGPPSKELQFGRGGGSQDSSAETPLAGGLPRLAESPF

Point of comparison: B5, “EC50” value 875 pM. Against it:
- B2 — 1.8-fold lower, 489 pM
- B3 — 2.4-fold lower, 362 pM
- B4 — 3-fold higher, 2610 pM
- B6 — 4.4-fold lower, 199 pM

Point of comparison: B2, relative activity 18.8%. Against it:
- B3 — higher, 34.5%
- B4 — lower, 4.79%
- B5 — lower, 9.83%
- B6 — higher, 51.3%

biological target: T2, GIP receptor; experiment: cell-based or functional assay

Point of comparison: B4, “EC50” value 6240 pM. Against it:
- B2 — 84-fold lower, 74 pM
- B3 — 16-fold lower, 399 pM
- B5 — 20-fold lower, 320 pM
- B6 — 44-fold lower, 142 pM

Point of comparison: B3, relative activity 5.01%. Against it:
- B2 — higher, 27%
- B4 — lower, 0.32%
- B5 — higher, 5.94%
- B6 — higher, 14.8%

biological target: GLP-1 receptor (UniProt P43220 24-463, limits assumed); experiment: cell-based or functional assay

Point of comparison: B6, “EC50” value 57 pM. Against it:
- B2 — 2.5-fold lower, 23 pM
- B3 — 5.5-fold higher, 315 pM
- B4 — 30-fold higher, 1720 pM
- B5 — 2.4-fold higher, 134 pM

Point of comparison: B6, relative activity 54.4%. Against it:
- B2 — higher, 148%
- B3 — lower, 7.94%
- B4 — lower, 1.45%
- B5 — lower, 26.9%
